# Data from the RNAGym collection of RNA variant scans (doi:10.1073/pnas.2313332121).
# Fewer inactive variants are shown than the library holds.
# B1: TPR 5TU (parent)
# chain: GGAUCUUCUCGAUCUAACAAAAAAGACAAAUCUGCCACAAAGCUUGAGAGCAUCUUCGGAUGCAGAGGCGGCAGCCUUCGGUGGCGCGAUAGCGCCAACGUUCUCAACUAUGACACGCAAAACGCGUGCUCCGUUGAAUGGAGUUUAUCAUG
# Variants of: B1
# Test: polymerase ribozyme fitness, log enrichment relative to wild type (log ratio); higher = more active; in vitro selection for triplet polymerase activity
# Method in brief: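 Frozen incubation at −7 °C formed the core of a single, triplicate in vitro selection round applied to PCR-built, transcribed mutant libraries of each subunit of a heterodimeric triplet polymerase ribozyme. Extended constructs were gel-excised, captured with streptavidin beads and amplified by RT-PCR, and input and output libraries were Illumina-sequenced with a filter of ≥10 input reads and ≥1 read per output. Fitness is the logarithm of genotype enrichment relative to wild-type enrichment, with inverse-variance-weighted replicate averaging, and the logarithm is base 2.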
row,Variant,polymerase ribozyme fitness (log ratio)
1,U56A G58U C63A A115U C118U,-1.35
2,U55A U101G A107G A138C G141A,≤ -4.2
3,C57U G86A A98U,-1.55
4,C57A G58U C76A C85U C96U A147G,-3.03
5,G58A C85U A106G,-0.0661
6,C57U A91U,-3.95
7,C57G C75U G86A A91C,≤ -4.2
8,C57U G86A A120G G141C,-2.82
9,C57A G74U G88U A115G A119U U145G C149G,≤ -4.2
10,C57A A107C C125A G133A G136A U151A,≤ -4.2
11,C57U G126A A138U,-3.43
12,C57G G59A C118U C125A G136C,-3.19
13,C57U U102G,-1.87
14,U56C G74U C76U G84U C125G A138C,≤ -4.2
15,U56A G83U,-0.976
16,C57A G141A G152U,-3.49
17,C57U A60C G86A C105G,≤ -4.2
18,U55A U82G C96G C116U G140C,-4.17
19,U55A U56A G71A U82G U102G,≤ -4.2
20,C57A A122C,-0.0129
21,C57U G80A,-0.314
22,C57G C87A U144C,-3.75
23,G58C A60C G94A G100C C103A,≤ -4.2
24,C57U C85U U102A C114A,-3.9

row,Variant,polymerase ribozyme fitness (log ratio)
1,C57G G83A G124U G141A,-1.22
2,C57A U61G U78G G88A U148A,≤ -4.2
3,U56A C105U C116G,-0.192
4,U56A A73G C76U,0.764
5,C57G C85G,-1.95
6,C57U A66G,-3.4
7,C57G G59A G80U G92U C99A C131U U135A,-3.22
8,C57A U146A,-0.0166
9,U55G G94A,-1.43
10,U55G A91U A106G G117U,-4.18
11,U56G G92U,-2.1
12,C57U G117C A122G,0.204
13,U56G G84C C116U,-4.17
14,G58A G71U,-0.673
15,U56A G74A A138G,≤ -4.2
16,G58A C79U,-1.65
17,U55A U146G,-0.637
18,U55A U146A,-0.393
19,C57G G58U C93A,-1.39
20,U56A C123U,0.128
21,U56A G70A G81C,≤ -4.2
22,U56A C118G A150G,-2.41
23,U56G C72U,-0.106
24,G58C A97U,-0.712

row,Variant,polymerase ribozyme fitness (log ratio)
1,C57G G84U,-1.79
2,C57G G84A,-0.518
3,U56C C85G U135C A142U G152A,≤ -4.2
4,U56A G80A U90A,≤ -4.2
5,G58A U101G C132G G133C A142C,-3.72
6,U56A G58A C103A C125A,-0.231
7,G58C A73G C85G,-2.21
8,U56A C57U C96U,-0.285
9,U56A C96G,-0.228
10,C57A C69A U127A,≤ -4.2
11,U56G G83U C125U,-1.82
12,G58A C76U U101G,0.481
13,U56G G81A U104C U145C,-1.47
14,C57U C75U C123G U144C,-0.394
15,C57U C96U,-0.201
16,C57U C96G,-0.76
17,U56A U61A C114G,-3.96
18,C57A G83C C87U U134G U139A U144G,≤ -4.2
19,U56G A73G U101C A119G U148C,-4.08
20,C57A G65A,-0.56
21,U55C C85A A91C G126A,-4.06
22,G58A C85G,-2.86
23,C57A C85A A107G,≤ -4.2
24,U55G U90A,≤ -4.2

row,Variant,polymerase ribozyme fitness (log ratio)
1,U56A G62A A97G C103A,-3.45
2,U55A U139A,-4.05
3,U56G G59A G81U A89C G92U U139A,≤ -4.2
4,U56A A113U,-1.87
5,U56G C85G A115U,-3.43
6,U56G A64U G81A G88A C114A A115U G141U,≤ -4.2
7,U56G A66C G81A C87U G117A,≤ -4.2
8,G58A G84A U104G G126U,-0.778
9,C57U C103G,-1.7
10,C57A C79U C93U A98U A147U,-3.03
11,C57G G59A U78G G84A,≤ -4.2
12,U55G G59C G86A C103U U146C,-2.47
13,C57G G88U G94A,≤ -4.2
14,C57G G71U C72G G84U G133U A137U,≤ -4.2
15,U56A C96U G126A,-0.336
16,C57U C131U,1.26
17,U56G G136A,0.0437
18,U55G C87A C93A C99U U134A,≤ -4.2
19,U56A C105U A121C G133U G140U,≤ -4.2
20,C57G C93A A113G A120C,-4.13
21,C57A C93A,-2.04
22,G58A C93A G112C,-4.12
23,U56G G84U,-2.16
24,U55G G84A C118U,-0.685

row,Variant,polymerase ribozyme fitness (log ratio)
1,U56A A89G,-2.69
2,U55C G74C G124A,-4.12
3,U56C C85G C149A,≤ -4.2
4,U56G A60G G84A,-0.664
5,G58C A64C C69G C85U A110U U134G,≤ -4.2
6,U55G C118U,-1.23
7,C57A G86U,-1.32
8,U56A A73U C87A A142C,≤ -4.2
9,C57G C69A,-2.56
10,U56G C75G C93U,-4.19
11,C57G C69G U101G C118U,-2.81
12,U56C G83A C87G C123U G141A,≤ -4.2
13,G58A G86A,-1.63
14,U55G U127G,-2.9
15,U56A G88A,-3.78
16,U55A U148C,-1.05
17,C57G G124U U148G,≤ -4.2
18,U55G G83C U135A G136A C149A,≤ -4.2
19,U56A G100U,-4.09
20,C57U C76G A115C A150G,≤ -4.2
21,C57A A91G U101A A142G,-4.08
22,C57A U101G,0.71
23,G58A U104A,0.105
24,C57A C72G U77A C87A U127A G136A,≤ -4.2

row,Variant,polymerase ribozyme fitness (log ratio)
1,U55G C108G,≤ -4.2
2,U56G A142U,-0.88
3,G58A C95U,-0.535
4,U56A U130A,-2.03
5,U55G G86U A89G A121C A147U,-3
6,U55C U61A U82A,-2.36
7,U56A C95A,-0.487
8,G58C A73G U101C C125G,-0.932
9,U56G U151C,≤ -4.2
10,G58C A89U C95A G126U,-0.892
11,U56A C99G G140U,-3.99
12,C57G G81U C85G C96U U134A,-4.03
13,U56A G124C,-1.68
14,G58A C96U,0.538
15,U56A G81A G126U U135C A138C G141C,≤ -4.2
16,C57G C103G,-2.16
17,U56C C93U U101G C103U G136C,-4.09
18,C57G U82C C93A C95U C116U,-3.34
19,C57A G59A G84U A97U C118G,-3.12
20,C57U G83U,-1.72
21,C57U U101G,-0.262
22,C57U U101A,0.41
23,U56A A107U,-2.87
24,C57A U78C C95G C99G,-3.07

row,Variant,polymerase ribozyme fitness (log ratio)
1,C57U G92A U104C U135C,≤ -4.2
2,U55G G59A,-2.25
3,G58A C95U C96G,-1.01
4,C57U C96U C103U G117U G136A G141U,≤ -4.2
5,U55G A89G G94A A119U,-1.9
6,U56A U78A C79A,≤ -4.2
7,G58A U90A C125G,≤ -4.2
8,U56A U78A A121C,≤ -4.2
9,U56A U77C,-2.93
10,C57A C129U G141A,≤ -4.2
11,U56A G68C U77A C96G U104G C108U G141C,≤ -4.2
12,C57G C76U G88A G92U,-3.96
13,U56A G59U C63G C87U,1.72
14,U56C G133U,-4.01
15,C57U C69A G84U A121C,-2.25
16,U56C C93U C114G A119G,-3.79
17,C57G A73G C116U,-0.324
18,U56A C57A C85G,-0.79
19,U56A C96U A119U,-0.585
20,U56G G58C U61A,-2.98
21,U56A C57A C85U C87U U144A U146G,≤ -4.2
22,U55G G83U C95U A147C,-1.88
23,U55C U127A U139G,-3.31
